In patent publication US10428140B2, “Anti-EphA4 antibody” (EISAI R&D MANAGEMENT CO., LTD., priority 2015, dated 2019):
Residue numbers refer to the chain shown, from its start. Where “and” joins values, the source holds several entries; their conditions need not be identical. Equal entries are not always repeated.

B1: 138 (antibody, V domains shown)
VH: QIQLVQSGSELKKPGASVKVSCKASGYTFTDYSMHWVRQAPGQGLKWMGWINTETGEPTYAQGFTGRFVFSLDTSVSTAYLQISSLKAEDTAVYYCARIPLYYYGSRYWYFDVWGQGTTVTVSS
VL: DIQMTQSPSSLSASVGDRVTITCRASENIYRNLAWYQQKPGKAPKLLVYAATNLADGVPSRFSGSGSGTDYTLTISSLQPEDFATYYCQHFWGTPWTFGQGTKVEIK
modifications: synthetic humanized antibody heavy chain variable region sequence; synthetic humanized antibody light chain variable region sequence
B2: 154 (antibody, V domains shown)
VH: B1 VH with I2V, K46E, Q62D, G63D, T65K
VL: B1 VL with V48L, P80S
modifications: synthetic humanized antibody heavy chain variable region sequence; synthetic humanized antibody light chain variable region sequence
B3: 155 (antibody, V domains shown)
VH: B1 VH with Q62D, G63D, T65K
VL: B1 VL with V48L, P80S
modifications: synthetic humanized antibody heavy chain variable region sequence; synthetic humanized antibody light chain variable region sequence
B4: 159 (antibody, V domains shown)
VH: B1 VH with I2V, Q62D, G63D, T65K
VL: B1 VL with K45Q, V48L
modifications: synthetic humanized antibody heavy chain variable region sequence; synthetic humanized antibody light chain variable region sequence
B5: 151 (antibody, V domains shown)
VH: B1 VH
VL: B1 VL with V48L, P80S
modifications: synthetic humanized antibody heavy chain variable region sequence; synthetic humanized antibody light chain variable region sequence
B6: 153 (antibody, V domains shown)
VH: B1 VH with I2V
VL: B1 VL with V48L, P80S
modifications: synthetic humanized antibody heavy chain variable region sequence; synthetic humanized antibody light chain variable region sequence
B7: 160 (antibody, V domains shown)
VH: B1 VH with Q62D, G63D, T65K
VL: B1 VL with K45Q, V48L
modifications: synthetic humanized antibody heavy chain variable region sequence; synthetic humanized antibody light chain variable region sequence
B8: 142 (antibody, V domains shown)
VH: B1 VH with I2V, Q62D, G63D, T65K
VL: B1 VL
modifications: synthetic humanized antibody heavy chain variable region sequence; synthetic humanized antibody light chain variable region sequence
B9: 134 (antibody, V domains shown)
VH: B1 VH with I2V
VL: EIVMTQSPATLSVSPGERATLSCRASENIYRNLAWYQQKPGQSPRLLIYAATNLADGIPARFSGSGSGTEYTLTISSLQSEDFAVYYCQHFWGTPWTFGQGTKVEIK
modifications: synthetic humanized antibody heavy chain variable region sequence; synthetic humanized antibody light chain variable region sequence
B10: 145 (antibody, V domains shown)
VH: B1 VH with I2V, Q62D, G63D, T65K
VL: B1 VL with V48L, P80S
modifications: synthetic humanized antibody heavy chain variable region sequence; synthetic humanized antibody light chain variable region sequence
B11: 143 (antibody, V domains shown)
VH: B1 VH with Q62D, G63D, T65K
VL: B1 VL
modifications: synthetic humanized antibody heavy chain variable region sequence; synthetic humanized antibody light chain variable region sequence
B12: 144 (antibody, V domains shown)
VH: B1 VH with I2V, K46E, Q62D, G63D, T65K
VL: B1 VL with K45Q, V48L
modifications: synthetic humanized antibody heavy chain variable region sequence; synthetic humanized antibody light chain variable region sequence
B13: 132 (antibody, V domains shown)
VH: B1 VH
VL: B9 VL
modifications: synthetic humanized antibody heavy chain variable region sequence; synthetic humanized antibody light chain variable region sequence
B14: 152 (antibody, V domains shown)
VH: B1 VH with I2V, K46E
VL: B1 VL with V48L, P80S
modifications: synthetic humanized antibody heavy chain variable region sequence; synthetic humanized antibody light chain variable region sequence
B15: 133 (antibody, V domains shown)
VH: B1 VH with I2V, K46E
VL: B9 VL
modifications: synthetic humanized antibody heavy chain variable region sequence; synthetic humanized antibody light chain variable region sequence
B16: 158 (antibody, V domains shown)
VH: B1 VH with I2V
VL: B1 VL with K45Q, V48L
modifications: synthetic humanized antibody heavy chain variable region sequence; synthetic humanized antibody light chain variable region sequence
B17: 157 (antibody, V domains shown)
VH: B1 VH with I2V, K46E
VL: B1 VL with K45Q, V48L
modifications: synthetic humanized antibody heavy chain variable region sequence; synthetic humanized antibody light chain variable region sequence
B18: 141 (antibody, V domains shown)
VH: B1 VH with I2V, K46E, Q62D, G63D, T65K
VL: B1 VL
modifications: synthetic humanized antibody heavy chain variable region sequence; synthetic humanized antibody light chain variable region sequence

Biological target: T1, human EphA4 (Homo sapiens, UniProt P54764)
T1 construct: made in house; not restated for the human SEAP-His protein
T1 sequence (P54764 20-547): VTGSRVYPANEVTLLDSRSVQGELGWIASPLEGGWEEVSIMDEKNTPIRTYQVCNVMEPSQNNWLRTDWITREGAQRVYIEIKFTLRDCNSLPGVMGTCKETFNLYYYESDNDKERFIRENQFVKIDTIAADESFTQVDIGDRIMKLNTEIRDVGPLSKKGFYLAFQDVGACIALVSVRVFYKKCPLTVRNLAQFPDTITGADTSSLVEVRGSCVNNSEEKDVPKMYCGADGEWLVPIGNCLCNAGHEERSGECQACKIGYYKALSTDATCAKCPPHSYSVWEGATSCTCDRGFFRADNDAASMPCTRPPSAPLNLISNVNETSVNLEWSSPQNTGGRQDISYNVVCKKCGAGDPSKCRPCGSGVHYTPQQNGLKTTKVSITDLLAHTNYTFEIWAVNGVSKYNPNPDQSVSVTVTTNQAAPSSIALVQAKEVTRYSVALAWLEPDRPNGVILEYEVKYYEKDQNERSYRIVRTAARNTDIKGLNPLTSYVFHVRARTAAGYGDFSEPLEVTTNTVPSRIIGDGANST
Experiment: Affinity of humanized antibodies by SPR (Biacore T200)
Assay type: binding
Settings: human EphA4 extracellular region-SEAP-His; 1:1 binding model
Procedure, shortened: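 Humanized antibodies captured on protein A chip (antibody A via immobilized rat anti-mouse IgG1) at about 30 to 60 RU in HBS-EP; human EphA4 extracellular region-SEAP-His injected single-cycle at 0.6 to 50 nM, 120 s association, 900 s dissociation. KD = kd/ka from 1:1 binding fits.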

Row | ka | kd | Molecule
1 | 330000 M⁻¹ s⁻¹ and 290000 M⁻¹ s⁻¹ | 0.00043 s⁻¹ and 0.00039 s⁻¹ | B1
2 | 390000 M⁻¹ s⁻¹ | 0.00065 s⁻¹ | B2
3 | 330000 M⁻¹ s⁻¹ | 0.00064 s⁻¹ | B3
4 | 310000 M⁻¹ s⁻¹ | 0.00061 s⁻¹ | B4
5 | 320000 M⁻¹ s⁻¹ | 0.00053 s⁻¹ | B5
6 | 290000 M⁻¹ s⁻¹ | 0.0006 s⁻¹ | B6
7 | 320000 M⁻¹ s⁻¹ | 0.00061 s⁻¹ | B7
8 | 340000 M⁻¹ s⁻¹ | 0.0005 s⁻¹ | B8
9 | 280000 M⁻¹ s⁻¹ | 0.00032 s⁻¹ | B9
10 | 330000 M⁻¹ s⁻¹ | 0.00065 s⁻¹ | B10
11 | 350000 M⁻¹ s⁻¹ | 0.00051 s⁻¹ | B11
12 | 400000 M⁻¹ s⁻¹ | 0.00078 s⁻¹ | B12
13 | 270000 M⁻¹ s⁻¹ | 0.00031 s⁻¹ | B13
14 | 400000 M⁻¹ s⁻¹ | 0.00082 s⁻¹ | B14
15 | 300000 M⁻¹ s⁻¹ | 0.00032 s⁻¹ | B15
16 | 310000 M⁻¹ s⁻¹ | 0.00061 s⁻¹ and 0.00056 s⁻¹ | B16
17 | 350000 M⁻¹ s⁻¹ | 0.00068 s⁻¹ | B17
18 | 390000 M⁻¹ s⁻¹ | 0.00062 s⁻¹ | B18

Same assay, conditions: human EphA4 extracellular region-SEAP-His; KD=kd/ka

Row | Kd | Molecule
19 | 1.3 nM and 1.4 nM | B1
20 | 2.2 nM | B2
21 | 1.9 nM | B3
22 | 2 nM | B4
23 | 1.7 nM | B5
24 | 2.1 nM | B6
25 | 1.9 nM | B7
26 | 1.5 nM | B8
27 | 1.2 nM | B9
28 | 2 nM | B10
29 | 1.5 nM | B11
30 | 2 nM | B12
31 | 1.2 nM | B13
32 | 2 nM | B14
33 | 1.1 nM | B15
34 | 1.9 nM and 1.6 nM | B16
35 | 2 nM | B17
36 | 1.6 nM | B18

Biological target: T2, human EphA4 (binding to human Ephrin A5) (Homo sapiens, UniProt P54764)
T2 construct: made in house; not restated for the human SEAP-His protein
T2 sequence (P54764 20-547): as above
Experiment: Human EphA4-human ligand binding inhibition ELISA of humanized antibodies (biotinylated Ephrin A5-Fc)
Settings: biotinylated human Ephrin A5-Fc 0.7 nM
Procedure, shortened: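 Wells coated with anti-alkaline phosphatase antibody captured human EphA4 extracellular region-SEAP-His at 10 nM. Biotinylated human Ephrin A5-Fc (0.7 nM) and serially diluted humanized antibody (0-3000 nM) were added together for 1 h at room temperature. Bound ligand was detected with HRP-streptavidin and TMBZ at A450.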

Row | IC50 [nM] | Molecule
37 | 2.9 | B1
38 | 2.5 | B2
39 | 2.4 | B3
40 | 2.6 | B4
41 | 2 | B5
42 | 2.3 | B6
43 | 2.2 | B7
44 | 3.7 | B8
45 | 3 | B9
46 | 3.7 | B10
47 | 5.3 | B11
48 | 3.6 | B12
49 | 3.1 | B13
50 | 2 | B14
51 | 3 | B15
52 | 2.8 | B16
53 | 2.6 | B17
54 | 3 | B18
